Data set [1] deals with T1, Zur (zinc uptake regulator) (Corynebacterium diphtheriae (strain of …, UniProt Q6NG23 1-142)).
T1 sequence: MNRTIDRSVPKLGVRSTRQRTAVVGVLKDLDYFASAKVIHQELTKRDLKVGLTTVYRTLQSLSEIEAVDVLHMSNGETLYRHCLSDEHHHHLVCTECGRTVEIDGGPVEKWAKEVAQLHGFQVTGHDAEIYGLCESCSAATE
The data set is described as follows: EMSA; 5 uM ZnCl2; 100 nM Zur, 1 nM oligo duplex; 10 mM Tris pH 7.5, 55 mM KCl, 1 mM DTT, 10% glycerol, 0.05% NP-40, 100 ug/ml BSA, 0.03 ug/ml salmon sperm DNA, 5 uM ZnCl2 (or Zn/EDTA titration 0.25-250 uM); temperature not stated. To be noted: protein: recombinant; tags: His-tag (pET30a); chain copies: 2; label: 5' biotin on strand 1; blunt. (In general: A gel shift assay detects complexes by their altered migration in electrophoresis.)

In data set [2] the target is T1, Zur (zinc uptake regulator). Description: EMSA; 250 uM EDTA; 100 nM Zur, 1 nM oligo duplex; 10 mM Tris pH 7.5, 55 mM KCl, 1 mM DTT, 10% glycerol, 0.05% NP-40, 100 ug/ml BSA, 0.03 ug/ml salmon sperm DNA, 5 uM ZnCl2 (or Zn/EDTA titration 0.25-250 uM); temperature not stated. To be noted: protein: recombinant; tags: His-tag (pET30a); chain copies: 2; label: 5' biotin on strand 1; blunt.

B1: cztA (dip1101) site 1 (dsDNA)
DNA 1: GGGTATCAGTACACATTATTTTCAATAAAGCCC
DNA 2: GGGCTTTATTGAAAATAATGTGTACTGATACCC
With B1, in data set [1], the binding result is “binds”.

B2: cztA (dip1101) site 2 (dsDNA)
DNA 1: GGGCATAAATGAAAATATGGGCTATGCTGCCCC
DNA 2: GGGGCAGCATAGCCCATATTTTCATTTATGCCC
In the case of B2, in data set [1], the binding result is “binds”.

B3: adhA (dip2114) site (dsDNA)
DNA 1: CCCTTCTAATGGTACCTATTTTCAATAGGTGGG
DNA 2: CCCACCTATTGAAAATAGGTACCATTAGAAGGG
Consider B3, for which the binding result in data set [2] is on record as “binds”.

B4: cmrA (dip2325) site (dsDNA)
DNA 1: CCCAATTATCGGTAATTATTTTCATTAAAAGGG
DNA 2: CCCTTTTAATGAAAATAATTACCGATAATTGGG
Turning to B4, in data set [2], the binding result is on record as “binds”.

B5: iutA (dip0169) DtxR binding site (dsDNA)
DNA 1: CCCTGTTTTAGCTTAGCCCTAGCTAATTTGGGG
DNA 2: CCCCAAATTAGCTAGGGCTAAGCTAAAACAGGG
Turning to B5, in data set [1], the binding result is “no binding”.
